In data set [1] the test system is pNP sensor. Description: Raw whole cell fluorescence with pNP sensor and sfGFP-PON1 under positive feedback regulation, flow cytometer. Type of data set: cell-based, E. coli. The conditions noted are these: mean of duplicate cultures ± SD. The text has this: FIGS. 16A-16D show ‘Catalyze’ and ‘sense’ system for hydrolysis reactions. […] UI: background fluorescence from cells without any pNP source to induce the TF; […]; pNP: TF induced by exogenously supplied pNP as a control/reference. […] Relative activity levels are distinguishable by eye.
The technique described here (referred to in this example as “smart microbial cells” or SMC; e.g., FIGS. 1A and 1B) allows for catalysis and sensing in the same microbial cell. For a practical library application, we simplified and improved the signal to noise ratio of the biosensor. This was achieved by gene fusing the PON1 to the GFP so that the TF is also regulating the catalytic enzyme expression as well (scheme shown in FIG. 1B). This fusion is expected to have three distinct effects. First, it provides positive feedback, such that more the activity, the more PON1 is expressed, and in turn further ‘feeds’ the activity. […] Second, feedback will amplify the already present correlation between activity and GFP expression. Third, for suitably chosen GFP, the fluorescence signal conveniently reports the amount of fused PON1 present, allowing normalization for specific activity.
. Based on the catalytic efficiency and the cytoplasmic concentration of the hydrolase, PXN hydrolysis results in a correlated pNP production inside the microbial cell that ultimately determines activation of the pNP sensor and accumulation of sfGFP in the cells. […] When pNP was used as an inducer, such that the expression of sfGFP-PON1 expression is independent of the catalytic efficiency of PON1, modest differences in cell fluorescence were still captured across the PON1 variants indicating V346A mutation could be detrimental to PON1 expression and stability (FIG. 16C, Table 6).
Background: Flow cytometry measures light scatter and fluorescence of single cells or particles in a stream.

The subject of data set [2] is BKA. Description: BKA sensing with PcaR variants in high BKA producing strain NN7. In kind it is cell-based, P. putida. As to conditions: strain NN7, LB background BKA production. The text has this: Rosetta homology modeling, using a known structure of a transcription factor with a homologous sequence (PDB code 2G7U) was used to get a 3D estimate of the PcaR inducer binding domain. Based on the predicted structure, several amino acids in the pocket were identified to be suitable for mutagenesis. […] Positions N140, L161, L166, L172, M179, L234, L238, S240, N257 and S259 were mutated for diversification to achieve N/S/T/I at positions 140 and 257, L/M/V at positions 161, 166, 172, 179, 234 and 238, S/T/A at position 240 and 259. This produced a library of diversity>100,000. The library was transformed in high BKA producing strain where native pcaR gene was deleted (strain NN7) and screened for increase fluorescence response with increasing dose of precursors while in the LB mediated BKA production background.

In data set [3] the test system is P. putida CJ200. Description: Shake flask muconate production. Type of data set: cell-based. As to conditions: plasmid expressed, over CJ200 with no heterologous UbiC expression. On the procedure:
Shake flask experiments for muconate production: P. putida CJ200 transformed with pPobR_ubiC plasmids or with genomically integrated ubiC-C22 under PobR regulation (NP015) were grown in 125 mL baffled shake flasks containing 25 mL of 1×M9 salts (6.78 g/L Na2HPO4, 3 g/L KH2PO4, 0.5 g/L NaCl, 1 g/L NH4Cl), 30-50 mM glucose, 2 mM MgSO4, 100 μM CaCl2), 18 μM FeSO4, and 50 μg/mL kanamycin. Seed cultures were grown from glycerol stocks in LB media supplemented with 50 μg/mL kanamycin, for 16 hours, pelleted and washed with M9 growth medium and subcultured into flasks to a final OD600 of 0.05. Cultures were incubated at 30° C. and 225 rpm for up to 2 days. Samples were taken at regular intervals to quantify cell density, glucose consumption, and muconate concentration.
Quantification of glucose and muconate concentrations using High Performance Liquid Chromatography (HPLC): To measure muconate concentration, culture samples collected at various time points were centrifuged either at 3,500 rpm for 10 min or 16,000 rpm for 1 min. […] The samples were analyzed for 10 min on a Fast Acid column (Phenomenex Rezex RFQ-Fast Acid H+(8%)) using 0.01 N H2SO4 at a flow rate of 0.8 mL/min as a mobile phase. […] Alternatively, the samples were analyzed for 40 min on a SUPELCOGEL H Column (SUPELCO) with 0.1% H2SO4 at 0.5 mL/min. […]

Data set [4] can be described thus: UbiC enzyme kinetic parameters (pyruvate release coupled to lactate dehydrogenase, NADH oxidation at 340 nm). Type of data set: biochemical. The conditions noted are these: sfGFP fused UbiC variants with C-terminal 6xHis tag, 30° C., pH 7.5; for Km: chorismate. On the procedure:
Enzyme expression and purification: 5 mL cultures were grown from the glycerol stocks of P. putida CJ182 containing plasmids encoding 6×His-tag UbiC variants. At an OD600 of ˜0.6, the cultures were induced with 1 mM 4HB and further grown for 16 h at 30° C. and 225 rpm shaking. The cultures were centrifuged at 3500×g for 10 min and the cell pellets were lysed with 500 μL BugBuster (Novagen) under slow shaking for 30 min. The cell lysates were centrifuged at 15,000×g for 15 min at 4° C. and the sfGFP-UbiC fusion proteins were purified by Affinity Chromatography using Talon beads (Clontech). For purification, the clarified supernatant for each UbiC variant was mixed with 200 μL Talon beads in an equilibration buffer (50 mM Tris-HCl, 300 mM NaCl, pH 7.5) for 30 min. The mixture was centrifuged at 2000×g, the supernatant was discarded and the pellet consisting of Talon beads with bound protein was washed two times with equilibration buffer containing 50 mM imidazole. Finally, the beads were mixed with elution buffer (50 mM Tris-HCl, 300 mM NaCl, 300 mM Imidazole, pH 7.5) and filtered through a spin column with 0.2 µm filter. The enzyme concentration and purity of the protein in the eluate were determined by absorbance at 280 nm using a Nanodrop (Thermo Scientific) and SDS polyacrylamide gel electrophoresis, respectively.
Determining enzyme kinetic parameters: The production of 4HB from chorismate catalyzed by UbiC is accompanied with release of a pyruvate molecule. […] The reactions were conducted in 96-well plate at 30° C. in the Synergy H4 Hybrid Microplate Reader (Biotek). The kinetic parameters and product inhibition constants were determined by measuring the initial reaction rates with respect to varying substrate and product concentrations and calculated using GraphPad Prism software.

Changes are numbered by the printed parent chain. Names and notes keep the numbering of the source.

B1: H115W/V346A: PON1 version that combines the two mutations H115W/V346A (protein, UniProt P27169 2-355, looked up, variant H115W V346A)
Serum …: AKLIALTLLGMGLALFRNHQSSYQTRLNALREVQPVELPNCNLVKGIETGSEDLEILPNGLAFISSGLKYPGIKSFNPNSPGKILLMDLNEEDPTVLELGITGSKFDVSSFNPWGISTFTDEDNAMYLLVVNHPDAKSTVELFKFQEEEKSLLHLKTIRHKLLPNLNDIVAVGPEHFYGTNDHYFLDPYLQSWEMYLGLAWSYVVYYSPSEVRVVAEGFDFANGINISPDGKYVYIAELLAHKIHVYEKHANWTLTPLKSLDFNTLVDNISVDPETGDLWVGCHPNGMKIFFYDSENPPASEVLRIQNILTEEPKVTQVYAENGTVLQGSTVASVYKGKLLIGTAFHKALYCEL
For the molecule B1, the “Raw whole cell fluorescence intensity, PXN (1.6 mM)” value in data set [1] (exogenous paraoxon 1.6 mM) came to 2410 ± 669. Further, the “Raw whole cell fluorescence intensity, pNP (200 μM)” value in data set [1] (induced with exogenous pNP 200 μM) worked out at 11484 ± 2032. Moreover, the “Raw whole cell fluorescence intensity, UI” value in data set [1] (uninduced, no pNP source) came to 248 ± 36.

B2: PcaR-G5: PcaR variant for a low sensitivity BKA sensor, SEQ ID NO: 26 (protein)
chain: MSDETLGNDSGNAEVARPASAAMAPPIVASPAKRIQAFTGDPDFMTSLARGLAVIQAFQERKRHLTIAQISHRTEIPRAAVRRCLHTLIKLGYATTDGRTYSLLPKVLTLGHAYLSSTPLAISAQPYLDRISDQLHEAANMATLEGDDILYIARSATVERLISVDLSVGGRMPAYCTSMGRILLAAMDDTSLREYLERADLKARTSRTLNDPESLFACIQQVRAQGWCVVDQELEQGVRAIAVPVYDASGQVLAALSVSTHVGRVTRSELEQRFLPILLAASRDLCHQLFG
modifications: PcaR-G5
Turning to B2, in data set [2], the “fluorescence response with BKA precursors, catechol and PCA” value (“fluorescence response” below) is “showed dose dependent response”.

B3: PcaR-H6: PcaR variant for a low sensitivity BKA sensor, SEQ ID NO: 28 (protein)
chain: B2 chain with A240S
modifications: PcaR-H6
In the case of B3, in data set [2], the “fluorescence response” value is given as “showed dose dependent response”.

B4: PcaR-F6: PcaR variant for a low sensitivity BKA sensor, SEQ ID NO: 27 (protein)
chain: B2 chain with M172L, V238M, A240T
modifications: PcaR-F6
Consider B4, for which the “fluorescence response” value in data set [2] is “showed dose dependent response”.

B5: UbiC_C21: E. coli UbiC variant with mutations M34V/I78V (protein, UniProt P26602 2-165, looked up, variant M34V I78V)
Chorismate pyruvate-lyase: SHPALTQLRALRYCKEIPALDPQLLDWLLLEDSVTKRFEQQGKTVSVTMIREGFVEQNEIPEELPLLPKESRYWLREVLLCADGEPWLAGRTVVPVSTLSGPELALQKLGKTPLGRYLFTSSTLTRDFIEIGRDAGLWGRRSRLRLSGKPLLLTELFLPASPLY
Regarding B5, the muconate yield increase in data set [3] is on record as ~130%. Moreover, in data set [4], the kcat was 0.67 ± 0.06 s⁻¹ and the Michaelis-Menten constant (Km) stood at 90.2 ± 7.8 µM.

B6: UbiC_C22: E. coli UbiC variant with mutations E31Q/M34V (protein, UniProt P26602 2-165, looked up, variant E31Q M34V)
Chorismate pyruvate-lyase: B5 Chorismate pyruvate-lyase with E31Q, V78I
As to B6, in data set [3], the muconate yield increase is reported as ~130%. Besides, in data set [4], the kcat amounted to 1.04 ± 0.09 s⁻¹ and the Km amounted to 148 ± 9.4 µM.

B7: UbiC_C11: E. coli UbiC variant with mutations E31Q/I78V/L80V (protein, UniProt P26602 2-165, looked up, variant E31Q I78V L80V)
Chorismate pyruvate-lyase: B5 Chorismate pyruvate-lyase with E31Q, V34M, L80V
Regarding B7, in data set [4], the kcat amounted to 0.51 ± 0.04 s⁻¹ and the Km is 54.7 ± 3.4 µM.

The kcat is the maximal rate divided by the concentration of active sites. As a reminder, the Km is the substrate concentration at which the rate is half of its maximum.

The values above are taken from US11739318B1, “Modified biosensors and biocatalysts and methods of use” (priority 2017, dated 2023).
